Key:
Assay in all cases: IP-MS rep 1
AT3G20740.1 FIE = target: T1, AT3G20740.1 FIE (Arabidopsis thaliana, UniProt Q9LT47 1-369)
T1 construct: Endogenous protein found by mass spectrometry; also called FERTILIZATION INDEPENDENT ENDOSPERM
T1 sequence (looked up): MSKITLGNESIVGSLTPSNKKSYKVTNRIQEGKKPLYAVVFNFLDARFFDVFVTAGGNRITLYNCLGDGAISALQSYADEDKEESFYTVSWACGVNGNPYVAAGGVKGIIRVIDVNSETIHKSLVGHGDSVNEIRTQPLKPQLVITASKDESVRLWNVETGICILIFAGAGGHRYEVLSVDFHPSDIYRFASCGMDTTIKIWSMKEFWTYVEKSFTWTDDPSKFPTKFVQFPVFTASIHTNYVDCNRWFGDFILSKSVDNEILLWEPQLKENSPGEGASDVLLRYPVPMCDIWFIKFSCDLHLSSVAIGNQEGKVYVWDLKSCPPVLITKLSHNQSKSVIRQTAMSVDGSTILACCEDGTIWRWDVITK
Outline: (§1)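 Peptide counts for co-purified proteins come from mass spectrometry of proteins pulled down from Arabidopsis floral buds with anti-FLAG magnetic beads. Ten grams of unopened buds from wild-type and FLAG-tagged transgenic lines were ground in liquid nitrogen and homogenised in 25 mL IP buffer. Lysates were held with 250 μL anti-FLAG M2 magnetic beads at 4° C for 2 hours, and bound proteins were eluted in TBS with 250 μg/mL 3×FLAG peptides.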

AT5G51230.1 EMF2 = target: T2, AT5G51230.1 EMF2 (Arabidopsis thaliana, UniProt Q8L6Y4 1-631)
T2 construct: Endogenous protein found by mass spectrometry; also called EMBRYONIC FLOWER 2
T2 sequence (looked up): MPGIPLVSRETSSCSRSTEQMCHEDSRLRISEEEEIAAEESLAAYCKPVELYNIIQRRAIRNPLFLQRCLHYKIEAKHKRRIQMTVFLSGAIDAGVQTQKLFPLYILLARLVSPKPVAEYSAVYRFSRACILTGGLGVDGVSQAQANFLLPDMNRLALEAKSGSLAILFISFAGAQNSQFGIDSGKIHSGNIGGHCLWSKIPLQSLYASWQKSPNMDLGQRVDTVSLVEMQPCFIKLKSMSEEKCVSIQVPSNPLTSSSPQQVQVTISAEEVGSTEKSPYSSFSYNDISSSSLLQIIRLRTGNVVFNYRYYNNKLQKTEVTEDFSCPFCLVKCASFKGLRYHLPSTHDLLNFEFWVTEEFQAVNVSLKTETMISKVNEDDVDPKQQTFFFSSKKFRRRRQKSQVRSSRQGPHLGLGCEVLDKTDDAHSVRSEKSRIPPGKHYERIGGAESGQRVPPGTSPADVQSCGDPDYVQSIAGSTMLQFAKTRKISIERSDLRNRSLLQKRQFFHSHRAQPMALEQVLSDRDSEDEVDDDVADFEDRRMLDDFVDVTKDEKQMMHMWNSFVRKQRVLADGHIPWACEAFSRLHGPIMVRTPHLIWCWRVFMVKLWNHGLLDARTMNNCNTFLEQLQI
Outline: as §1

AT4G35510.1 TRBIP1 = target: T3, AT4G35510.1 TRBIP1 (Arabidopsis thaliana)
T3 construct: Endogenous protein found by mass spectrometry
T3 chain: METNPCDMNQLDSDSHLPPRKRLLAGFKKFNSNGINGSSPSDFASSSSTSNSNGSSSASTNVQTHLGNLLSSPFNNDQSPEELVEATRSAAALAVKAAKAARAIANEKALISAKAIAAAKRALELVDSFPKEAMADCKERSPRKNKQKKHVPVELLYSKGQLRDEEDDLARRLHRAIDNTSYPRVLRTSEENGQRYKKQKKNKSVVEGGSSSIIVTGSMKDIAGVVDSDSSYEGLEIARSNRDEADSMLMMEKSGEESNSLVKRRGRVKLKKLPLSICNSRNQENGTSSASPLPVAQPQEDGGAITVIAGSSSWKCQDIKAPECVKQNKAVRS
Outline: as §1

AT5G08450.1 HDC1 = target: T4, AT5G08450.1 HDC1 (Arabidopsis thaliana)
T4 construct: Endogenous protein found by mass spectrometry
Outline: as §1

AT3G49850.1 TRB3 = target: T5, AT3G49850.1 TRB3 (Arabidopsis thaliana, UniProt Q9M2X3 1-295)
T5 construct: Endogenous protein found by mass spectrometry
T5 sequence: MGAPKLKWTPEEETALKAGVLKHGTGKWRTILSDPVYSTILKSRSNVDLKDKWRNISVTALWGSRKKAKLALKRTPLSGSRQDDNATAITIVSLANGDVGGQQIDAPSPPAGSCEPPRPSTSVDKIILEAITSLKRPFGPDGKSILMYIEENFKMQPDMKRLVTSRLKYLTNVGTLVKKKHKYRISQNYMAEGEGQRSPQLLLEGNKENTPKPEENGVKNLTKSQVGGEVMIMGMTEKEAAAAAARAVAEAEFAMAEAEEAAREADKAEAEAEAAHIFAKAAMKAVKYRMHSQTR
Outline: as §1

AT3G10480.3 NAC050 = target: T6, AT3G10480.3 NAC050 (Arabidopsis thaliana, UniProt Q9SQX9 1-447, limits assumed)
T6 construct: Endogenous protein found by mass spectrometry
T6 sequence (looked up): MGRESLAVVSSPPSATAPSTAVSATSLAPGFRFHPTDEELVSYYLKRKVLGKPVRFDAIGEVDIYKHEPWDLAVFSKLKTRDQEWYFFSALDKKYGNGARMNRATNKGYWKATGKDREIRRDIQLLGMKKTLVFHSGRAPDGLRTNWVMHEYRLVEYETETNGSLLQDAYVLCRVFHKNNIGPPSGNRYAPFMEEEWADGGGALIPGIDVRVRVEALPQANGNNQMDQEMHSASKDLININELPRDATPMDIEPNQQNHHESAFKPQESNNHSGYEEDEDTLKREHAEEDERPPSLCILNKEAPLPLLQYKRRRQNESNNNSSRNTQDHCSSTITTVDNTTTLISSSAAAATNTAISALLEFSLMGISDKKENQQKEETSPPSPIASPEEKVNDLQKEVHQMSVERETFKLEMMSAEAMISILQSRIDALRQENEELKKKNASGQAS
Outline: as §1

IP-MS count (AT3G20740.1 FIE): 1
IP-MS count (AT5G51230.1 EMF2): 0
IP-MS count (AT4G35510.1 TRBIP1): 1
IP-MS count (AT5G08450.1 HDC1): 2
IP-MS count (AT3G49850.1 TRB3): 8
IP-MS count (AT3G10480.3 NAC050): 1
B1: TRBIP2 (bait of the TRBIP2 IP-MS) (other, not shown: small tags and cut ends)
chain: MATNACLESDSLLPPRKRLLAGFKNQNSRISNESPSPPFASSSSSTTTSNGSSASAVVHTHHLDHLLNDQTRSPEELAQASKATAALAVKVAKAARATANEKAIIASKAVAAAKNALELFASFPAAETVSCKEPRLIRAINNSPRVLTDCSGHRNKKQKTLTSTMNDGNDVAGVVDSDDGTRVNGKLLLCDNTLKEKTEEESSSLGKRRGRVKLPLSMCAYKDQENGITLEENNLSVSKSEGYNGGVAQVIERPSWKCQDLKSPECVKQNKVVRS
notes: tag and its position not described; also called TRBIP2-1; TRBIP2-2

— patent publication US20250042956A1 (University of California, published 2025)
